For this experiment, the target named is MtbClpC1^F444S-E288A-E626A (Mycobacterium tuberculosis) (UniProt P9WPC9). Description: cryo-EM structure.

The stoichiometry N is a count of units in the complex or per binding partner. “MtbClpC1^F444S-E288A-E626A (from UniProt P9WPC9 1-848) (enzyme)” showed a stoichiometry N of 6.

Source of the values: paper PMC11992174.
